Laboratory results from PMC3104520 (Biochemistry, 2011).
Like-named read-outs stand apart in the source and are kept apart here.

How the values were obtained:
Assay in all cases: diffusion NMR
diffusion NMR [1] = biological target: the molecule itself
diffusion NMR [2] = biological target: the molecule itself; remark: listed apart in the source
diffusion NMR [3] = biological target: the molecule itself; remark: listed apart in the source

B1: Surfactant protein A (SP-A), bovine (natural protein)
chain: not shown
Diffusion NMR [1]
  stoichiometry N: ~9 molecules
Diffusion NMR [2]
  stoichiometry N: ~12 molecules
Diffusion NMR [3]
  stoichiometry N: ~10 molecules
